# From the DeepSol protein solubility set
# Test: soluble on expression in E. coli; label from the status in PepcDB or PDB records
row,Sequence,soluble on expression in E. coli
1,MGSDKIHHHHHHMKVYLSFDYELYFGAKSGSADACIIEPAKLLLEIAARHAVHLNFFIDSGYLLALEKYSKRYPSVAYEKQQVFKQIRELAAAGHDCQLHIHPHWEDSYYDGNGWKMNTNRYRLDHFPDAQIEQIVQSYYDITKDIAGKAPIAYRAGGWCMPPWNKVSAVFKKLGIWIDSTVYEKGYLQEGQIAFDFRKAPASDQWMFETDPVTEAPFGYFLELPISSISCSPLFFWNLYVRGRLNRSLHAGMGDGLPMAQPGTKKKLLTRYTQQALSCDGYYASLLTEEFYKRKAKGEDTMVVIGHPKAQSKFSVQALDTFISTVKDSAAFARYSDLQKD,not soluble
2,MGSDKIHHHHHHMKWLLFPARIVARTRPNLFSLYRRSVSQYLRPRTIQNLQSMAQTPELKTKLFKPLVWIDCEMTGLDHVNDRIIEICCIITDGHLAPVKAADGQGDSHYESVIHYGPEVMNKMNEWCIEHHGNSGLTAKVLASEKTLAQVEDELLEYIQRYIPDKNVGVLAGNSVHMDRLFMVREFPKVIDHLFYRIVDVSSIMEVARRHNPALQARNPKKEAAHTAYSDIKESIAQLQWYMDNYLKPPQETESVESIGSEQPESPSSSTSSLKRQRTDF,not soluble
3,MGSDKIHHHHHHMKYLVSIDGGGTKTKFCVSDLDGNILKEHTTGSTNYKSVGIKKTYENINNGFKKILKDLYIDYDDIEYTVFGISGCDSPNDYKIIMDEILKIGINKEKIYLANDAVLAFYAQADSPGLVIVAGTGSIILGIKEDGEIYRVGGWGYNFSDLGSGYDIGRKLLKKVLLYCDECHEYSDLFSCVLDFFGANSFEQLAYMITDINDNVEIANLASLVIDCAEQGDKLAIEILRESSTELSKLAQVILRKISNPMKMDKSEINIVLSGGTLNKTVYVQMLMNNLKTENTDKNLKFISQENQPVYGGIRLAMALANRRVKHG,not soluble
4,MGSDKIHHHHHHMKYVLIQATDNGILRRAECGGAVTALFKYLLDKKLVDGVLALKRGEDVYDGIPTFITNSNELVETAGSLHCAPTNFGKLIAKYLADKKIAVPAKPCDAMAIRELAKLNQINLDNVYMIGLNCGGTISPITAMKMIELFYEVNPLDVVKEEIDKGKFIIELKNGEHKAVKIEELEEKGFGRRKNCQRCEIMIPRMADLACGNWGAEKGWTFVEICSERGRKLVEDAEKDGYIKIKQPSEKAIQVREKIESIMIKLAKKFQKKHLEEEYPSLEKWKKYWNRCIKCYGCRDNCPLCFCVECSLEKDYIEEKGKIPPNPLIFQGIRLSHISQSCINCGQCEDACPMDIPLAYIFHRMQLKIRDTLGYIPGVDNSLPPLFNIER,not soluble
5,MGSDKIHHHHHHMLDDHTQLEFPASGMTELPLIWQPQVIRCKAAGPGGRPLLVLLDTGTDPSAIDLTLARRLDLRLGDFALGSDATCDTVPFTETVLPWLRLGEVMLRNLYLMAVDLRQMPFPVDLVLGYNVLHRLNLTIDYAGQTVRLCHPDLAPPPPGAEGASVPLRFFEHFPALPAQIIAPSGATHDVILTIDTGSNGALTVSRDLAASLHLDLHTVQAATGHGFAAATPVSRGFTVDLQLGPFRLPAVEVDVPATSHGDLGRQGRANVGNRLLSRFRRLTLDYRREVCILDR,not soluble
6,MGSDKIHHHHHHMLDKLWKKKNSMMVGIDIGSHSAKAVLLGQGNEGFIIEDFAIEPMPRGSVVDREIQDIEAVGAVIAKLRKKISAKATDAAAAVSGQTVITKLIYMDVALTEDELASQIEIEADSLIPFPLDEVSLDFETLDVNESDPSKVNVLLSAARTESIEARVAALDAGDFHAKVIDVESYAVGRAYDLCLTQLPDDAKDKVVAIVDIGSTVTLFSATDAGKHIYSRDQMFGGEQYTRSIVSYYNKSFEQAEEAKTSNDLPPNYTFEVLAPFHTVLMQQIRRAIQMFLTTSGQNKVDYLLISGGTAALEGIESLLTEELGIHTVIANPFNDMSCGESIEQAELANVAPQLMVATGLALRSFTPWHI,not soluble
7,MGSDKIHHHHHHMLDLGCGDGTLLHYLRDKLDIHGYGVEIDAHNILACMKNGINVIQNDLEAGLSEFEGESFDYVILSQTLQAMKNTEYIIREMLRVGKEGIVSFPNFGYWKNRIQVAGGHMPVSPTLPYQWYDTPNVHLCTLHDFEQLCQQHRVNILERRVMNNDKKVTFLPNLFGILAFYRFSHAA,not soluble
8,MGSDKIHHHHHHMLEQTLLDIALDLSQSLPKKALYQRFMTAVNQVMPCDAVALLEYQGHELVPVAVDGLLPEVLGMGFSPEDHPRLQAIMASKQPIRFNADSELADPYDGYLVIDPKRVLDVHACIGCSLFVEGRLVGVLTLDALNVGAFDAIDDITIATLAALAAATIRNVNLLNQLDRQQYKLDDNDSVFKQKPLKKSDFIGETPCMQALKDDIRIVANSELSVIIGGETGVGKELVARSLHAQSKRRAQALVQVNCAALPDTLAESELFGHSKGAFTGAAKDRMGKFELAHQGTLFLDEVGELSLELQAKLLRVIQEGEIQRIGLDRNIHVDVRIIAASNRNLLQRVKEGLFREDLYHRLCVYPLNVPPLRERQDDIPLLCGNILTNLKHKIGLSSAKTVRLTQAAMQKLQGYPWPGNVRELQHVLMRAALKASAEAKGITVIQLHHLTFACEPMSQGLTELTAFNSNSPDSNPSTSDETFAAANREEKVEPPVISRSFNDRVADFQRQVIRQSLDDNSQVWAKAARQLQLDRGNLHRQAKRLGLIP,not soluble
9,MGSDKIHHHHHHMLIIKRSVAIIAILFSPLSTASNLTSQLHNFFSAQLAGVSDEVRVSIRTAPNLLPPCEQPLLSMSNNSRLWGNVNVLARCGNDKRYLQVNVQATGNYVVAAMPIARGGKLEAGNVKLKRGRLDTLPPRTVLDINQLVDAISLRDLSPDQPIQLTQFRQAWRVKAGQRVNVIASGDGFSANAEGQALNNAAVAQNARVRMVSGQVVSGVVDADGNILINL,not soluble
10,MGSDKIHHHHHHMLISANFDGGNIEVINQDDINNVQLAIRPDEGGEFFQWFNFRLQGEVGQRYTLNIINAGQASYTKGWEDYQAAATYDRQQWFRLPTQYQDGKLTIEVELDCEMIQIAYFAPYSYERHQDLLSAVQVHPLVSLEHLGKTLDDRDMTLVKVGDEDEEKAKIWITARQHPGETMAEWLVEGLLNNLLDGDCPTAKALLDKANFYIVPNMNPDGGVRGHLRTNAKGVNLNREWQSPSLEKSPEVYHVVNRMKETGVDLYYDVHGDEGLPYVFLAGCEGVPGYNQKMADLQGDFVKALLMASADFQDEFGYDKDEPGQANLTVASNWVAQTFGCLSNTLEMPFKDNANMPDPMSGWSPERCIYLGEASLLAMLAVVDKLR,not soluble
11,MGSDKIHHHHHHMLKRIATSLLDIAYDEQGNADGWPVVLLHGFPYDIHAYDAVTPRLTSQGARVITPYLRGYGPTRFLAPTTLRSGQQAALGADLLALLDALQIGQAVLGGYDWGGRAACIVAALYPSRARGLVSVNGYNIQNIAAASQPADPEKEYRMWYQYYLHGERGRAGLTENRREFCRLLWSLWSPTWHFGDDTYARSAAAFDNPDFVDVVVHSYRHRFGLVDGDPQFDDIERRLSAMPPITVPAITLEGDADGVSPPGGRQANSQRFTGRHQNRVVPNAGHNLPQEAPGAFADAVLDINAWAARRSCACGD,not soluble
12,MGSDKIHHHHHHMLKRILVIIGLAVLATACSNAPRTVSHQVISENDDIQLTGLINNLEKDNRTGIFHKVRTNRSSALMGDKALASVYNEWVGTRYRMGGTTKRGIDCSAFMQTTFSEVFGIELPRSTAEQRHLGRKINKSELKKGDLVFFRKNNHVGVYIGNNQFMHASTGQGVTISSLDEKYWARTYTQSRRIM,not soluble
13,MGSDKIHHHHHHMLLHLSTWQEVEAYLQQSKGIIFPIGSTEQHGPTGLIGTDAICAEAIAAGVGDATGAIVGPTINVGMALHHTAFPGTISLRPSTLIQVVRDYVTCLAKAGFSKFYFINGHGGNIATLKAAFSETYAHLEDLQIANAQQVQCQVANWFMCGSVYKLAKELYGDQEGSHATPSEVALTQYVYPEAIKQAPLSPEVASGHRIYSAADFRVRYPDGRMGSNPGLATPEHGKQFYDLAVKELSNGYLEFVNAD,not soluble
14,MGSDKIHHHHHHMLMKSSTEQIRRQNSALVLAALRVEQAMSHTQIAAVTGLASATVTAITSELEQAGVIERHEQQIAGARGRPRVALSRRRDFAYVMSVRISSDRLNYTLSDFRGKLMDRFEEPRPLDVSAAGFIEGLGRNLARLASRSKLEPEKVAVLSVSSKGIVDAGGARLLWTPVFGQQPLDLKAALGDFEKAMALLSNETLLVAHGLSRRMDAQDGTFRGLIALSLGHSIGLGIARPMPDGTVAVSAPNFGHMLNTADSKLCRCGARGCIEASAGFYGILRMAFEVRPDTIPAKFVPITEMDKIALSARQGNRMAQYAFRQAGLALGQGLSRVFSLHETLPVTITGPGTRYYDLLAQGLEEGLAQSLQVRLDGAPPISLVGDEADLVQEGHVDHALRAIDERLFGGG,not soluble
15,MGSDKIHHHHHHMLNEMEKTVLQMIMAGSDISRVDISRALGISKPVVSKAVNRLIELGFVKEAGRKESSSKGGRKPVLLSFVPESRYVIGVDIGGTKIDAVLTDLVGNVLNKEHILLPSNLDKRKLLELIKKVIHPFLVYERILGIGIGIPGTVDEDHLVKRIPAFDVTDWDLKEELEKTFGYPVFVENNANLDAFAEAKIGAGRGFRCVLLISVGWGIGSGIVYDGKIFRGARGKAGEFGHIVTDWSKEKEIVLEKGFGHLEEWFSGFSMSKRFGKSPEWVFEKRHNEIKKNLEHFGVAVANAIVLFDPDVVIIKGGIGLHQFEKISAVVRSVVSKIVPEDILKDVEIRKGEIEEYGVAIGGALFVIENILGLKGGGKYEGCQASREVGSKAGV,not soluble
16,MGSDKIHHHHHHMLNFYPGPSKLHANIDLHLQQAITSGILSMNHRSMDFMQLYQQVQENFEQFYDLPKDYKVYFTSAATECWTILAQSFPNRSFLHLYNGSFGKKWMEVSKQLEVEHTSVVFDIHGELPVTEINPDTAAEIVCTTLVETSNGTFLSKDIQAAVRETFSDALIAVDATSALAGLSVTWEHADIWFASVQKCFGLPSGLGILILSPTAQHTVEFRSKDIHYNSLKRIVENGASFQTTHTPNILGIYLLAQRLKEIDVTEFFNRNERMNYLYNHFSSHPSLQPLIIEKSVQSATVLTLKGDEEYIKQVKKSLKAQDIIIGSGYGVWKENTIRLANFPAHTDEDFKKLLLVI,not soluble
17,MGSDKIHHHHHHMLNLDFAKRVIIETAKQEWVDSPASGVRRKLLEREEAERGRATSIVEYKPGASFSTHEHPLGEEILVLEGVFSDENGDYPAGTYIRNPPGSSHAPFSKDGCKLLVKLHQFQPTDTQVVRINTHEAEWLPGQGGLEVMPLHSHGTEHVALVKWPANEVFKPHRHLGGEEILVLSGEFCDEHGRYPEGTWMRSPHTSVHHPFVDRETIIWVKTGHLG,not soluble
18,MGSDKIHHHHHHMLNMSNVPNDSVEEDGRLPTGKLPSAIGKNHRIAVVDTHFHLWKSQEIAPPSGIMADPSLFRDFDWSDYELAMQGVALEAAIHVQVHHGSEKAKSEYGRVERFAAEHAPIAGMIAWAPLESPGVEREIAELAQSPLVAGVRRLTQQEPDELFCARPQFVAGAKLLASYGLVCEVCVLEHQLKGVIALASACPELTIILDHLGKPHLAEPPTEHWLENMRILGMLENVVCKVAPTPLWASDPPLTAAHAAPFIEYVAEHFGWDRLIYGSNWPPLRILTDDASQWADIVFKTLHWAKADELGRLFSENARRIFRLNKGHR,not soluble
19,MGSDKIHHHHHHMLNSQSKLDQEVIEGIHRIRENGVLPFIATGRGHFELDEIMSLTGISGAVAMNGQYIVLDGETIYKEEIPTSSVEKLLEAASPHSEALSFYDSQGYWVSELTDLAKTAYAYTHMPMPQADARRYLSQEVNMLLVLTNQLSQVDYYKERVPELNFFMNSPSSIDVTNSTTNKGTGINHVKEVLNFTGQTFAFGDGRNDLDLFKAADHRTAMGNAVPELKELADFISTENTNHGIINAFNHWGIM,not soluble
